# Assay results reported in the supplement of paper PMC10724198.
# ± gives the standard deviation of the averaged measurements.
# System: Saccharomyces cerevisiae
# Assay: protein stability index of tFT-peptide fusion (C-terminal peptide) (PSI (0-1 scale)); higher = more stable (slower turnover)
# Details: genetic background: doa10 deletion; temperature: 30 C
# Experimental: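 MPS profiling in S. cerevisiae of the tFT-X12 degron library: putative degron peptides plus stable controls, 12 aa, fused to the C-terminus of a sfGFP-mCherry timer. Cells are FACS-sorted into 8 mCherry/sfGFP bins and deep-sequenced. PSI runs from 0 (unstable) to 1 (stable). Backgrounds are wild type, das1Δ and doa10Δ at 30 °C, and wild type, das1Δ, cdc34-1 and cdc53-1 at 37 °C; 2-3 technical replicates each.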
# 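Note: PSI is a weighted mean of sequencing reads over stability bins, variants kept only with over 10 reads, mCherry proximal and sfGFP distal, peptide attached via GGGS linker.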
row,Sequence,protein stability index
1,GTVRSLLKWRCS,0.148 ± 0.016
2,GVCLGFICVGFC,0.343 ± 0.029
3,GVCWCVLFVVGC,0.226 ± 0.012
4,GVYFIGISRCVC,0.175 ± 0.018
5,GVYRLCLLLLVY,0.158 ± 0.0074
6,GWRGVVLVFVLV,0.251 ± 0.012
7,GWSRRFFCLFIV,0.0815 ± 0.015
8,GWWCGIGVAVSV,0.292 ± 0.0069
9,HHACLLPVRKAG,0.154 ± 0.007
10,HLAQYSSSLHLM,0.375 ± 0.022
11,HPPPPPPPPSLS,0.677 ± 0.029
12,IACVLSIFLNAA,0.2559 ± 0.0013
13,ICQFFFFALLSF,0.238 ± 0.011
14,IDSEVHLWKRSA,0.16 ± 0.016
15,IFAVLVSGSFFF,0.318 ± 0.0053
16,IFLGFGPLFGRL,0.726 ± 0.037
17,IGSFFLFFLLIF,0.354 ± 0.027
18,IIIGTLLYVNVR,0.188 ± 0.018
19,IKRLKEVARHVS,0.265 ± 0.019
20,ILGQSVIMRIKM,0.606 ± 0.0061
21,ILLICLQFFNLF,0.3502 ± 0.00069
22,ILRIYIPRWRRQ,0.119 ± 0.032
23,INKKKKMIITKI,0.227 ± 0.0025
24,IPRSCRIRLAVL,0.254 ± 0.0096
25,IQICLNRLRLFH,0.251 ± 0.016
26,IRACGCSFLWVC,0.1113 ± 0.00066

row,Sequence,protein stability index
1,IRLCAASFMVVF,0.3904 ± 0.0034
2,IRSRGLLIRWLS,0.0894 ± 0.0094
3,IVCAVTSIFLFF,0.243 ± 0.01
4,IVRSLFGYLCVV,0.427 ± 0.0099
5,KCVVMFFLRSVS,0.396 ± 0.012
6,KFFRSWVLTSPA,0.41 ± 0.021
7,KFRGMTLRNKVC,0.093 ± 0.0025
8,KHTGTGNAPNCD,0.647 ± 0.025
9,KIKKLKNRRKLV,0.0918 ± 0.019
10,KKKKQKKNNNKR,0.668 ± 0.011
11,KLKDLTRIKIFR,0.6428 ± 0.002
12,KRARVIWKLVVV,0.23 ± 0.01
13,KRMVEKNKKKIN,0.153 ± 0.024
14,KSSIGVWTLLIR,0.564 ± 0.02
15,KSTLVRILVFHV,0.2825 ± 0.0003
16,KYKANLGNLKVH,0.0824 ± 0.011
17,LAPPFPVVLTPA,0.219 ± 0.0087
18,LCGGEWVVWVKG,0.211 ± 0.0085
19,LCIFFWFSSFFL,0.401 ± 0.0067
20,LCLICLFLLKVL,0.18 ± 0.018
21,LCRCPVGVFVLL,0.356 ± 0.033
22,LCVVFCIRTYRV,0.247 ± 0.031
23,LCYVLLWLLCRS,0.33 ± 0.0069
24,LDLPFESGIACF,0.209 ± 0.02
25,LEGLLIRVYITF,0.151 ± 0.017
26,LFFFLFSLLIFF,0.377 ± 0.014

row,Sequence,protein stability index
1,LFFFRLFVFWVF,0.173 ± 0.014
2,LFFFSFSFLFFL,0.317 ± 0.024
3,LFFFVFFVLFSV,0.304 ± 0.013
4,LFFRLLCAFLFL,0.578 ± 0.04
5,LFFVFCLFFIYF,0.322 ± 0.0061
6,LFHSIPRLLLLK,0.627 ± 0.0064
7,LFKFCLGIPLFL,0.4179 ± 0.004
8,LFLSAFFYLLVW,0.277 ± 0.0047
9,LFLVLFCVVGFV,0.222 ± 0.0075
10,LFSFFVFFFLLD,0.375 ± 0.005
11,LFTRWSILFKLF,0.0889 ± 0.025
12,LGDPPCRMIVVR,0.339 ± 0.011
13,LGGVEDRWRTAT,0.261 ± 0.016
14,LGRLDYKRMKRA,0.477 ± 0.017
15,LGSYIFVVVIYF,0.141 ± 0.0079
16,LGSYVWVFVYFW,0.148 ± 0.0054
17,LHIHGAGIVCAG,0.318 ± 0.0044
18,LICRFLFFVCVG,0.277 ± 0.011
19,LILLTFTLRVPV,0.2056 ± 0.001
20,LLCLCSLPVFAS,0.223 ± 0.009
21,LLFLLSPFNFAV,0.2535 ± 0.0025
22,LLFTFSLSFFFR,0.458 ± 0.018
23,LLLHFMFSIFWF,0.378 ± 0.011
24,LLMWVLFDCHYS,0.306 ± 0.01
25,LLPTSVFLPSLF,0.282 ± 0.0082
26,LLRIFLPLLYLL,0.218 ± 0.0076

# Same assay, conditions: genetic background: wild type; temperature: 30 C
row,Sequence,protein stability index
1,GTVRSLLKWRCS,0.192 ± 0.02
2,GVCLGFICVGFC,0.362 ± 0.026
3,GVCWCVLFVVGC,0.259 ± 0.02
4,GVYFIGISRCVC,0.208 ± 0.025
5,GVYRLCLLLLVY,0.156 ± 0.026
6,GWRGVVLVFVLV,0.269 ± 0.027
7,GWSRRFFCLFIV,0.0745 ± 0.024
8,GWWCGIGVAVSV,0.339 ± 0.027
9,HHACLLPVRKAG,0.187 ± 0.0086
10,HLAQYSSSLHLM,0.424 ± 0.014
11,HPPPPPPPPSLS,0.67 ± 0.013
12,IACVLSIFLNAA,0.274 ± 0.031
13,ICQFFFFALLSF,0.128 ± 0.018
14,IDSEVHLWKRSA,0.176 ± 0.027
15,IFAVLVSGSFFF,0.336 ± 0.041
16,IFLGFGPLFGRL,0.73 ± 0.0083
17,IGSFFLFFLLIF,0.245 ± 0.045
18,IIIGTLLYVNVR,0.215 ± 0.029
19,IKRLKEVARHVS,0.256 ± 0.031
20,ILGQSVIMRIKM,0.636 ± 0.02
21,ILLICLQFFNLF,0.36 ± 0.018
22,ILRIYIPRWRRQ,0.132 ± 0.035
23,INKKKKMIITKI,0.253 ± 0.043
24,IPRSCRIRLAVL,0.271 ± 0.027
25,IQICLNRLRLFH,0.305 ± 0.02
26,IRACGCSFLWVC,0.106 ± 0.0056

row,Sequence,protein stability index
1,IRLCAASFMVVF,0.405 ± 0.023
2,IRSRGLLIRWLS,0.0994 ± 0.033
3,IVCAVTSIFLFF,0.249 ± 0.035
4,IVRSLFGYLCVV,0.437 ± 0.022
5,KCVVMFFLRSVS,0.412 ± 0.011
6,KFFRSWVLTSPA,0.444 ± 0.018
7,KFRGMTLRNKVC,0.1 ± 0.04
8,KHTGTGNAPNCD,0.635 ± 0.011
9,KIKKLKNRRKLV,0.0978 ± 0.0038
10,KKKKQKKNNNKR,0.6 ± 0.027
11,KLKDLTRIKIFR,0.6737 ± 0.0056
12,KRARVIWKLVVV,0.287 ± 0.015
13,KRMVEKNKKKIN,0.201 ± 0.037
14,KSSIGVWTLLIR,0.334 ± 0.035
15,KSTLVRILVFHV,0.303 ± 0.0068
16,KYKANLGNLKVH,0.0914 ± 0.05
17,LAPPFPVVLTPA,0.267 ± 0.035
18,LCGGEWVVWVKG,0.234 ± 0.026
19,LCIFFWFSSFFL,0.389 ± 0.019
20,LCLICLFLLKVL,0.201 ± 0.032
21,LCRCPVGVFVLL,0.303 ± 0.035
22,LCVVFCIRTYRV,0.251 ± 0.042
23,LCYVLLWLLCRS,0.353 ± 0.026
24,LDLPFESGIACF,0.263 ± 0.029
25,LEGLLIRVYITF,0.173 ± 0.02
26,LFFFLFSLLIFF,0.259 ± 0.047

row,Sequence,protein stability index
1,LFFFRLFVFWVF,0.157 ± 0.023
2,LFFFSFSFLFFL,0.245 ± 0.014
3,LFFFVFFVLFSV,0.211 ± 0.023
4,LFFRLLCAFLFL,0.501 ± 0.012
5,LFFVFCLFFIYF,0.252 ± 0.017
6,LFHSIPRLLLLK,0.241 ± 0.033
7,LFKFCLGIPLFL,0.402 ± 0.029
8,LFLSAFFYLLVW,0.238 ± 0.014
9,LFLVLFCVVGFV,0.219 ± 0.02
10,LFSFFVFFFLLD,0.37 ± 0.031
11,LFTRWSILFKLF,0.0908 ± 0.012
12,LGDPPCRMIVVR,0.376 ± 0.026
13,LGGVEDRWRTAT,0.296 ± 0.025
14,LGRLDYKRMKRA,0.51 ± 0.021
15,LGSYIFVVVIYF,0.143 ± 0.033
16,LGSYVWVFVYFW,0.151 ± 0.028
17,LHIHGAGIVCAG,0.374 ± 0.029
18,LICRFLFFVCVG,0.278 ± 0.02
19,LILLTFTLRVPV,0.227 ± 0.026
20,LLCLCSLPVFAS,0.27 ± 0.018
21,LLFLLSPFNFAV,0.303 ± 0.017
22,LLFTFSLSFFFR,0.42 ± 0.022
23,LLLHFMFSIFWF,0.324 ± 0.016
24,LLMWVLFDCHYS,0.322 ± 0.023
25,LLPTSVFLPSLF,0.331 ± 0.021
26,LLRIFLPLLYLL,0.131 ± 0.021
